Common to all, as to conditions: tags: Calbiochem Human Skin
Data set [1] has as its target T1, chymase (native, human skin mast cell) (Homo sapiens, UniProt P23946 P23946:22-247).
T1 sequence: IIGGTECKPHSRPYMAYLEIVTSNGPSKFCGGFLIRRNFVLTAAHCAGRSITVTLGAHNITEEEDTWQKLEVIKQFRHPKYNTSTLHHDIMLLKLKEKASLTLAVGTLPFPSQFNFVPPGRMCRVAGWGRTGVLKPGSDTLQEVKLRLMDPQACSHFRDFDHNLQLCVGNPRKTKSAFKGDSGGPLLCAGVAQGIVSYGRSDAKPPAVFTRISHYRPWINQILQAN
The data set is described as follows: inhibition; angiotensin I substrate; second G of GGGG 2'-OMe. How it is done:
(§1) The total volume of solution for an enzyme reaction in the assay was set to 50 μL, and the reaction was performed in solution C buffer. At first, native (manufactured by Calbiochem) was diluted with solution C to give 5 μL thereof. Here, the native is chymase purified from human skin mast cell. The nucleic acid was serially diluted with solution C at a concentration of 0.0027-2 μM to give 25 μL thereof. The chymase solution (5 μL) and the nucleic acid solution (25 μL) were mixed, and the mixture was incubated at 37° C. for 5 min. On the other hand, […] angiotensin I (manufactured by PEPTIDE […], INC.) was prepared in solution C to give 20 μL thereof, which was incubated at 37° C. for 5 min. […] The whole mixture was centrifuged at 4° C., 14000 rpm for 10 min, and the supernatant (30 μL) was used for the next fluorescence induction reaction.
(§2) The above-mentioned supernatant (30 μL) was added to a 96 well plate (black, manufactured by Costar), a solution (15 μL) of 2% o-phthalaldehyde (manufactured by SIGMA) in methanol and 0.3M NaOH solution (170 μL) were added to each well, and the mixture was incubated at room temperature for 10 min. […] The plate was set on a microplate reader SpectraMax190 (manufactured by Molecular device) and the fluorescence intensity was measured at an excitation wavelength of 355 nm and a fluorescence wavelength of 460 nm. […]

In data set [2] the target is T1, chymase (native, human skin mast cell). The data set is described as follows: inhibition; angiotensin I substrate; 40 kDa PEG. As for the experimental part: as §1, §2
Data set [3] shares this target. The data set is described as follows: inhibition; angiotensin I substrate, 37 C, 1.8 mM Ca, 0.8 mM Mg, pH 7.6. How it is done: Whether the nucleic acids shown by SEQ ID NO: 9 and 10 inhibit the enzyme activity of chymase was determined by the following method. Angiotensin I is converted by chymase to angiotensin II, during which a peptide fragment His-Leu is released. Since the peptide His-Leu is fluorescently derivatized by o-phthalaldehyde, its fluorescence intensity can be quantitatively measured.
The total volume of solution for an enzyme reaction in the assay was set to 50 μL, and the reaction was performed in solution C buffer. At first, native (manufactured by Calbiochem) was diluted with solution C to give 5 μL thereof. Here, the native is chymase purified from human skin mast cell. […] The whole mixture was centrifuged at 4° C., 14000 rpm for 10 min, and the supernatant (30 μL) was used for the next fluorescence induction reaction.
The above-mentioned supernatant (30 μL) was added to a 96 well plate (black, manufactured by Costar), a solution (15 μL) of 2% o-phthalaldehyde (manufactured by SIGMA) in methanol and 0.3M NaOH solution (170 μL) were added to each well, and the mixture was incubated at room temperature for 10 min. […] The plate was set on a microplate reader SpectraMax190 (manufactured by Molecular device) and the fluorescence intensity was measured at an excitation wavelength of 355 nm and a fluorescence wavelength of 460 nm.

B1: SEQ ID NO: 33(9) (mixed)
RNA: AUGAUCGGACAUAACUAAUUAGGGGUGUCAA
modifications: idT-A(M)U(M)G(M)A(M)U(F)C(F)G(M)G(M)A(M)C(M)A(M)U(M)AAC(M)U(F)A(M)A(M)U(M)U(M)A(M)G(M)G(M)G(M)G(M)tG(M)U(M)C(M)A(M)A(M)-idT (F=2'-F, M=2'-OMe)
What is called IC50 is the concentration that gives 50% inhibition. On to B1, for which inhibition in data set [1] was half-maximal at 1.35 nM (IC50).

B2: SEQ ID NO: 33(18) (mixed)
RNA: B1 RNA
modifications: PEG-A(M)U(M)G(M)A(M)U(F)C(F)G(M)G(M)A(M)C(M)A(M)U(M)AAC(M)U(F)A(M)A(M)U(M)TA(M)G(M)GG(M)G(M)TG(M)U(M)C(M)A(M)A(M)-idT (F=2'-F, M=2'-OMe, PEG=40 kDa branched PEG)
On to B2, for which half-maximal inhibition in data set [2] (IC50) required 0.109 nM.

B3: SEQ ID NO: 9 (ssRNA)
RNA: GGGAACGAAGCGACAGACGUUCCAGCGUCUAAUACGUGAAUAACCUGAUCGUAGGGGGUUCAAGUACUGAGGACAGA
modifications: 2'-F pyrimidines (U, C); purines 2'-OH
With B3, the IC50 in data set [3] amounted to 0.22 nM.

Values taken from US20210002644, “ANTI-CHYMASE APTAMER AND USE FOR SAME” (RIBOMIC INC., published 2021).
